The target of test [1] is human Dectin-1 on HEK cells expressing hDectin-1 (human) (UniProt Q9BXN2). Description: flow cytometry on HEK cells expressing hDectin-1 (sheet title: Binding to hDec1 on Hek). A general note: A flow cytometer gives signals particle by particle.
For test [2], the target named is T1, human Trop-2 expressed on cells (A-431, NCI-N87, SKBR3, CHO-K1-hTrop2) (human, UniProt P09758 27-323).
T1 sequence: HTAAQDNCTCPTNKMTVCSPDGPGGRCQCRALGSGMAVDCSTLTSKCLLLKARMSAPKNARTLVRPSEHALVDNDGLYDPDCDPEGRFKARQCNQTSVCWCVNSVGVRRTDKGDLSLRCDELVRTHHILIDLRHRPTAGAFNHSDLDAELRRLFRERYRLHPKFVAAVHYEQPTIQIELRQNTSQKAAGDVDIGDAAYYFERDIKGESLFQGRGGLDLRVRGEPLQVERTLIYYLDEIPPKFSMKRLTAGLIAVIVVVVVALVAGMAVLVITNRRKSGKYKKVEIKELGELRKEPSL
Description: flow cytometry on A431 cells expressing hTrop-2.

Test [3] deals with T2, human Dectin-1 isoform A on HEK-Blue hDectin-1a cells (human, UniProt Q9BXN2 1-247).
T2 sequence: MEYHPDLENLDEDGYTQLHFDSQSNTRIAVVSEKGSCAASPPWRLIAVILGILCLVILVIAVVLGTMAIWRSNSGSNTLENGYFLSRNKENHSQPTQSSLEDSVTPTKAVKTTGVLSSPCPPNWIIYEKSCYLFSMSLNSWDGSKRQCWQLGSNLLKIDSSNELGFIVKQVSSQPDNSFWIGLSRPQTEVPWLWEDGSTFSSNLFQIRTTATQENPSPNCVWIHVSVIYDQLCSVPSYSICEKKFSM
The test is described as follows: cell-based or functional assay.

Test [4] addresses T1, human Trop-2 expressed on cells (A-431, …). The test is described as follows: flow cytometry on CHO-K1 cells expressing hTrop-2 (sheet title: Binding to Chok1 hTrop2).
Test [5] addresses T2, human Dectin-1 isoform A on HEK-Blue …. Description: cell-based or functional assay. This is another data set of the same source.

Read-outs that look alike come from different tables or passages of the source.

Four molecules from patent US20260146093A1 (DREN BIO MANAGEMENT, published 2026) can be followed below.

B1: Dectin-1 2M24.131 x Trop-2 clone A hIgG1 (bispecific antibody)
anti-Dectin-1 scFv-Fc arm: QVQLVQSGAEVKKPGASVKVSCKASGYTFTDYYMHWVRQAPGQGLEWMGWINPNEGDTNYAQKFEGRITMTRDTSISTAYMELSRLRSDDTAVYYCARNTGAYSFGYWGCGTLVTVSSGGGGSGGGGSGGGGSGGGGSDIQMTQSPSSVSASVGDRVTITCRASQGISSWLAWYQQKPGKCPKLLIYGASDLQSGVPSRFSGSGSGTDFTLTISSLQPEDFATYYCQQAYGFPFTFGPGTKVDIKEPK
anti-Trop-2 heavy chain: QVQLQQSGSELKKPGASVKVSCKASGYTFTNYGMNWVKQAPGQGLKWMGWINTYTGEPTYTDDFKGRFAFSLDTSVSTAYLQISSLKADDTAVYFCARGGFGSSYWYFDVWGQGSLVTVSS
anti-Trop-2 light chain: DIQLTQSPSSLSASVGDRVSITCKASQDVSIAVAWYQQKPGKAPKLLIYSASYRYTGVPDRFSGSGSGTDFTLTISSLQPEDFAVYYCQQHYITPLTFGAGTKVEIK
notes: member of group m8; also called 2M24.131xTrop-2 clone A hG1; scFv-format anti-Dectin-1 x anti-Trop-2 bispecific, clone A
As usually defined, the EC50 (read off the curve) is the concentration at which the effect is half-maximal. For the molecule B1, in test [1], the EC50 (read off the curve) came out at 4 nM. Further, the binding result in test [2] is reported as “binds”. The “EC50 of SEAP secretion by the hDectin-1 reporter cells (hDec1 Reporter Assay; the Trop-2-expressing cell line is not named)” value in test [3] was determined as 1.46 nM.

B2: Dectin-1 2M24.131 x Trop-2 clone C hIgG1 (bispecific antibody)
anti-Dectin-1 scFv-Fc arm: B1 anti-Dectin-1 scFv-Fc arm
anti-Trop-2 heavy chain: QVQLVQSGSELKKPGASVKLSCKASGYTFTSYGMNWVRQAPGQGLEWMGWINTNTGNPTYAQGFTGRFVFSLDTSVSTAYLQISSLKAEDTAVYYCARGYNWNDGDFDYWGQGTLVTVSS
anti-Trop-2 light chain: AIQMTQSPSSLSPSVGDRVTITCRASQGIRNDLGWYQQKPGKAPKLLIFAASSLQSGVPSRFSGSGSGTDFTLTISNLQPEDFATYYCLQNYNYPLTFGGGTKVEIK
notes: member of group m8; also called 2M24.131xTrop-2 clone C hG1; scFv-format anti-Dectin-1 x anti-Trop-2 bispecific, clone C
In test [1], B2 showed an EC50 (read off the curve) of 3 nM. For the same molecule, the binding result in test [2] was “binds”. In test [3], the “EC50 of SEAP secretion by the hDectin-1 reporter cells (hDec1 Reporter Assay; the Trop-2-expressing cell line is not named)” value was 1.49 nM.

B3: Dectin-1 2M24.131 x Trop-2 clone B hIgG1 (bispecific antibody)
anti-Dectin-1 scFv-Fc arm: B1 anti-Dectin-1 scFv-Fc arm
anti-Trop-2 heavy chain: QVQLQESGPGLVKPSGTLSLTCAVSGGSISSSNWWSWVRQPPGKGLEWIGEIYHDGSTDYFPSLKSRVTISVDKSKNQFSLKLSSVTAADTAVYYCARDNWGFDYWGQGTLVTVSS
anti-Trop-2 light chain: DIVLTQSPGTLSLSPGERATLSCRASQSVSSSYLAWYQQKPGQAPRLLISGASSRATGIPDRFSGSGSGTDFTLTISRLEPEDFAVYYCQQYGSSHRTFGQGTKVEIK
notes: member of group m8; also called 2M24.131xTrop-2 clone B hG1; scFv-format anti-Dectin-1 x anti-Trop-2 bispecific, clone B
Consider B3, for which the EC50 (read off the curve) in test [1] came to 3 nM. Besides, the binding result in test [2] is “binds”. Moreover, the “EC50 of SEAP secretion by the hDectin-1 reporter cells (hDec1 Reporter Assay; the Trop-2-expressing cell line is not named)” value in test [3] came to 0.91 nM.

B4: Dectin-1 2M24.124 x Trop-2 clone C hIgG1 (bispecific antibody)
anti-Dectin-1 heavy chain: QVQLVQSGAEVKKPGASVKVSCKASGYTFTDYYMHWVRQAPGQGLEWMGWINPNEGDTNYAQKFEGRITMTRDTSISTAYMELSRLRSDDTAVYYCARNTGAYSFGYWGCGTLVTVSS
anti-Dectin-1 light chain: DIQMTQSPSSVSASVGDRVTITCRASQGISSWLAWYQQKPGKCPKLLIYGASDLQSGVPSRFSGSGSGTDFTLTISSLQPEDFATYYCQQAYGFPFTFGPGTKVDIK
anti-Trop-2 heavy chain: B2 anti-Trop-2 heavy chain
anti-Trop-2 light chain: B2 anti-Trop-2 light chain
notes: member of group m9; also called 2M24.124xTrop-2 clone C hG1; disulfide-engineered Fab-format bispecific, clone C
For B4, the “EC50 (read off the curve)” value in test [4] was approximately 9 nM. Further, the “EC50 of SEAP secretion by the hDectin-1 reporter cells (hDec1 Reporter Assay; the Trop-2-expressing cell line is not named)” value in test [5] came out at 0.69 nM.
